Measured values taken from the supplement of paper PMC5998384.

Tests used:
[1] = system: HeLa Kyoto; test: melting temperature (median over replicates), in situ; higher = more thermally stable
[2] = system: HeLa Kyoto; test: solubility change mitosis vs G1/S (difference of NP-40 vs SDS log2 ratios) (log2 ratio difference); higher = more soluble in mitosis
[3] = system: HeLa Kyoto; test: solubility in G1/S (NP-40 vs SDS abundance) (log2 ratio); higher = more soluble; conditions: cell cycle stage: G1/S
[4] = system: HeLa Kyoto; test: thermal stability score vs G1/S (z-score of summed log2 fold changes over temperatures); higher = more thermally stable than in G1/S
[5] = cell cycle stage: early G1 (4.5 h after nocodazole release)
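Throughout, for melting temperature (median over replicates), in situ: HeLa Kyoto cells synchronized by double thymidine or nocodazole block, proteins quantified by TMT10plex mass spectrometry, three independent biological replicates.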
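Throughout, for solubility change mitosis vs G1/S (difference of NP-40 vs SDS log2 ratios): synchronized HeLa Kyoto cells (double thymidine block for G1/S, nocodazole release for mitosis), protein amounts in NP-40 versus SDS lysates quantified by mass spectrometry, three biological replicates.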
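Throughout, for solubility in G1/S (NP-40 vs SDS abundance): HeLa Kyoto cells arrested at G1/S by double thymidine block, proteins quantified by TMT10plex mass spectrometry in mild NP-40 versus SDS extracts, three biological replicates.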
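Throughout, for thermal stability score vs G1/S (z-score of summed log2 fold changes over temperatures): synchronized HeLa Kyoto cells, proteins quantified by TMT10plex mass spectrometry, three biological replicates, mitosis taken 0.5 h after nocodazole release, G1/S directly after double thymidine block.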

Row | Sequence | melting temperature ([1]; cell cycle stage: G1/S) | melting temperature ([1]; cell cycle stage: mitosis) | solubility change mitosis (log2) [2] | solubility in G1/S (log2) [3] | thermal stability score [4, 5] | thermal stability score ([4]; cell cycle stage: mitosis)
1 | MGQSGRSRHQKRARAQAQLRNLEAYAANPHSFVFTRGCTGRNIRQLSLDVRRVMEPLTASRLQVRKKNSLKDCVAVAGPLGVTHFLILSKTETNVYFKLMRLPGGPTLTFQVKKYSLVRDVVSSLRRHRMHEQQFAHPPLLVLNSFGPHGMHVKLMATMFQNLFPSINVHKVNLNTIKRCLLIDYNPDSQELDFRHYSIKVVPVGASRGMKKLLQEKFPNMSRLQDISELLATGAGLSESEAEPDGDHNITELPQAVAGRGNMRAQQSAVRLTEIGPRMTLQLIKVQEGVGEGKVMFHSFVSKTEEELQAILEAKEKKLRLKAQRQAQQAQNVQRKQEQREAHRKKSLEGMKKARVGGSDEEASGIPSRTASLELGEDDDEQEDDDIEYFCQAVGEAPSEDLFPEAKQKRLAKSPGRKRKRWEMDRGRGRLCDQKFPKTKDKSQGAQARRGPRGASRDGGRGRGRGRPGKRVA [PPAN] | 52.2 °C | 52 °C | 1.07 | -1.97 | -0.721 | -2.53
2 | MGFGDLKSPAGLQVLNDYLADKSYIEGYVPSQADVAVFEAVSSPPPADLCHALRWYNHIKSYEKEKASLPGVKKALGKYGPADVEDTTGSGATDSKDDDDIDLFGSDDEEESEEAKRLREERLAQYESKKAKKPALVAKSSILLDVKPWDDETDMAKLEECVRSIQADGLVWGSSKLVPVGYGIKKLQIQCVVEDDKVGTDMLEEQITAFEDYVQSMDVAAFNKI [EEF1B2] | 50.7 °C | 50.6 °C | 0.236 | 0.522 | -1.43 | -1.91
3 | MERSPGEGPSPSPMDQPSAPSDPTDQPPAAHAKPDPGSGGQPAGPGAAGEALAVLTSFGRRLLVLIPVYLAGAVGLSVGFVLFGLALYLGWRRVRDEKERSLRAARQLLDDEEQLTAKTLYMSHRELPAWVSFPDVEKAEWLNKIVAQVWPFLGQYMEKLLAETVAPAVRGSNPHLQTFTFTRVELGEKPLRIIGVKVHPGQRKEQILLDLNISYVGDVQIDVEVKKYFCKAGVKGMQLHGVLRVILEPLIGDLPFVGAVSMFFIRRPTLDINWTGMTNLLDIPGLSSLSDTMIMDSIAAFLVLPNRLLVPLVPDLQDVAQLRSPLPRGIIRIHLLAARGLSSKDKYVKGLIEGKSDPYALVRLGTQTFCSRVIDEELNPQWGETYEVMVHEVPGQEIEVEVFDKDPDKDDFLGRMKLDVGKVLQASVLDDWFPLQGGQGQVHLRLEWLSLLSDAEKLEQVLQWNWGVSSRPDPPSAAILVVYLDRAQDLPLKKGNKEPNPMVQLSIQDVTQESKAVYSTNCPVWEEAFRFFLQDPQSQELDVQVKDDSRALTLGALTLPLARLLTAPELILDQWFQLSSSGPNSRLYMKLVMRILYLDSSEICFPTVPGCPGAWDVDSENPQRGSSVDAPPRPCHTTPDSQFGTEHVLRIHVLEAQDLIAKDRFLGGLVKGKSDPYVKLKLAGRSFRSHVVREDLNPRWNEVFEVIVTSVPGQELEVEVFDKDLDKDDFLGRCKVRLTTVLNSGFLDEWLTLEDVPSGRLHLRLERLTPRPTAAELEEVLQVNSLIQTQKSAELAAALLSIYMERAEDLPLRKGTKHLSPYATLTVGDSSHKTKTISQTSAPVWDESASFLIRKPHTESLELQVRGEGTGVLGSLSLPLSELLVADQLCLDRWFTLSSGQGQVLLRAQLGILVSQHSGVEAHSHSYSHSSSSLSEEPELSGGPPHITSSAPELRQRLTHVDSPLEAPAGPLGQVKLTLWYYSEERKLVSIVHGCRSLRQNGRDPPDPYVSLLLLPDKNRGTKRRTSQKKRTLSPEFNERFEWELPLDEAQRRKLDVSVKSNSSFMSRERELLGKVQLDLAETDLSQGVARWYDLMDNKDKGSS [ESYT1] | 49.1 °C | 50.1 °C | -0.113 | 0.0161 | 2.16 | 4.68
4 | MLLPAPALRRALLSRPWTGAGLRWKHTSSLKVANEPVLAFTQGSPERDALQKALKDLKGRMEAIPCVVGDEEVWTSDVQYQVSPFNHGHKVAKFCYADKSLLNKAIEAALAARKEWDLKPIADRAQIFLKAADMLSGPRRAEILAKTMVGQGKTVIQAEIDAAAELIDFFRFNAKYAVELEGQQPISVPPSTNSTVYRGLEGFVAAISPFNFTAIGGNLAGAPALMGNVVLWKPSDTAMLASYAVYRILREAGLPPNIIQFVPADGPLFGDTVTSSEHLCGINFTGSVPTFKHLWKQVAQNLDRFHTFPRLAGECGGKNFHFVHRSADVESVVSGTLRSAFEYGGQKCSACSRLYVPHSLWPQIKGRLLEEHSRIKVGDPAEDFGTFFSAVIDAKSFARIKKWLEHARSSPSLTILAGGKCDDSVGYFVEPCIVESKDPQEPIMKEEIFGPVLSVYVYPDDKYKETLQLVDSTTSYGLTGAVFSQDKDVVQEATKVLRNAAGNFYINDKSTGSIVGQQPFGGARASGTNDKPGGPHYILRWTSPQVIKETHKPLGDWSYAYMQ [ALDH4A1] | 51.8 °C | 50.7 °C | -0.0143 | 0.0698 | -0.222 | -0.434
5 | MTTLDDKLLGEKLQYYYSSSEDEDSDHEDKDRGRCAPASSSVPAEAELAGEGISVNTGPKGVINDWRRFKQLETEQREEQCREMERLIKKLSMTCRSHLDEEEEQQKQKDLQEKISGKMTLKEFAIMNEDQDDEEFLQQYRKQRMEEMRQQLHKGPQFKQVFEISSGEGFLDMIDKEQKSIVIMVHIYEDGIPGTEAMNGCMICLAAEYPAVKFCKVKSSVIGASSQFTRNALPALLIYKGGELIGNFVRVTDQLGDDFFAVDLEAFLQEFGLLPEKEVLVLTSVRNSATCHSEDSDLEID [PDCL] |  | 51.5 °C | 0.0999 | -0.0669 | 0.206 | -0.546
6 | MAALTTLFKYIDENQDRYIKKLAKWVAIQSVSAWPEKRGEIRRMMEVAAADVKQLGGSVELVDIGKQKLPDGSEIPLPPILLGRLGSDPQKKTVCIYGHLDVQPAALEDGWDSEPFTLVERDGKLYGRGSTDDKGPVAGWINALEAYQKTGQEIPVNVRFCLEGMEESGSEGLDELIFARKDTFFKDVDYVCISDNYWLGKKKPCITYGLRGICYFFIEVECSNKDLHSGVYGGSVHEAMTDLILLMGSLVDKRGNILIPGINEAVAAVTEEEHKLYDDIDFDIEEFAKDVGAQILLHSHKKDILMHRWRYPSLSLHGIEGAFSGSGAKTVIPRKVVGKFSIRLVPNMTPEVVGEQVTSYLTKKFAELRSPNEFKVYMGHGGKPWVSDFSHPHYLAGRRAMKTVFGVEPDLTREGGSIPVTLTFQEATGKNVMLLPVGSADDGAHSQNEKLNRYNYIEGTKMLAAYLYEVSQLKD [CNDP2] | 54.4 °C | 53.4 °C | -0.148 | 0.253 | -6.23 | -11.6
7 | MAMAYLAWRLARRSCPSSLQVTSFPVVQLHMNRTAMRASQKDFENSMNQVKLLKKDPGNEVKLKLYALYKQATEGPCNMPKPGVFDLINKAKWDAWNALGSLPKEAARQNYVDLVSSLSPSLESSSQVEPGTDRKSTGFETLVVTSEDGITKIMFNRPKKKNAINTEMYHEIMRALKAASKDDSIITVLTGNGDYYSSGNDLTNFTDIPPGGVEEKAKNNAVLLREFVGCFIDFPKPLIAVVNGPAVGISVTLLGLFDAVYASDRATFHTPFSHLGQSPEGCSSYTFPKIMSPAKATEMLIFGKKLTAGEACAQGLVTEVFPDSTFQKEVWTRLKAFAKLPPNALRISKEVIRKREREKLHAVNAEECNVLQGRWLSDECTNAVVNFLSRKSKL [ECI2] | 53.6 °C | 53.2 °C | -0.0636 | 0.369 | -0.204 | 0.871
8 | MSSSPLSKKRRVSGPDPKPGSNCSPAQSVLSEVPSVPTNGMAKNGSEADIDEGLYSRQLYVLGHEAMKRLQTSSVLVSGLRGLGVEIAKNIILGGVKAVTLHDQGTAQWADLSSQFYLREEDIGKNRAEVSQPRLAELNSYVPVTAYTGPLVEDFLSGFQVVVLTNTPLEDQLRVGEFCHNRGIKLVVADTRGLFGQLFCDFGEEMILTDSNGEQPLSAMVSMVTKDNPGVVTCLDEARHGFESGDFVSFSEVQGMVELNGNQPMEIKVLGPYTFSICDTSNFSDYIRGGIVSQVKVPKKISFKSLVASLAEPDFVVTDFAKFSRPAQLHIGFQALHQFCAQHGRPPRPRNEEDAAELVALAQAVNARALPAVQQNNLDEDLIRKLAYVAAGDLAPINAFIGGLAAQEVMKACSGKFMPIMQWLYFDALECLPEDKEVLTEDKCLQRQNRYDGQVAVFGSDLQEKLGKQKYFLVGAGAIGCELLKNFAMIGLGCGEGGEIIVTDMDTIEKSNLNRQFLFRPWDVTKLKSDTAAAAVRQMNPHIRVTSHQNRVGPDTERIYDDDFFQNLDGVANALDNVDARMYMDRRCVYYRKPLLESGTLGTKGNVQVVIPFLTESYSSSQDPPEKSIPICTLKNFPNAIEHTLQWARDEFEGLFKQPAENVNQYLTDPKFVERTLRLAGTQPLEVLEAVQRSLVLQRPQTWADCVTWACHHWHTQYSNNIRQLLHNFPPDQLTSSGAPFWSGPKRCPHPLTFDVNNPLHLDYVMAAANLFAQTYGLTGSQDRAAVATFLQSVQVPEFTPKSGVKIHVSDQELQSANASVDDSRLEELKATLPSPDKLPGFKMYPIDFEKDDDSNFHMDFIVAASNLRAENYDIPSADRHKSKLIAGKIIPAIATTTAAVVGLVCLELYKVVQGHRQLDSYKNGFLNLALPFFGFSEPLAAPRHQYYNQEWTLWDRFEVQGLQPNGEEMTLKQFLDYFKTEHKLEITMLSQGVSMLYSFFMPAAKLKERLDQPMTEIVSRVSKRKLGRHVRALVLELCCNDESGEDVEVPYVRYTIR [UBA1] | 49.5 °C | 50 °C | -0.171 | 0.11 | 2.94 | 5.38
9 | MGSAGLSRLHGLFAVYKPPGLKWKHLRDTVELQLLKGLNARKPPAPKQRVRFLLGPMEGSEEKELTLTATSVPSFINHPLVCGPAFAHLKVGVGHRLDAQASGVLVLGVGHGCRLLTDMYNAHLTKDYTVRGLLGKATDDFREDGRLVEKTTYDHVTREKLDRILAVIQGSHQKALVMYSNLDLKTQEAYEMAVRGLIRPMNKSPMLITGIRCLYFAPPEFLLEVQCMHETQKELRKLVHEIGLELKTTAVCTQVRRTRDGFFTLDSALLRTQWDLTNIQDAIRAATPQVAAELEKSLSPGLDTKQLPSPGWSWDSQGPSSTLGLERGAGQ [TRUB2] | 50.2 °C | 50 °C | 0.16 | -0.103 | -0.241 | 0.385
10 | MELRVLLCWASLAAALEETLLNTKLETADLKWVTFPQVDGQWEELSGLDEEQHSVRTYEVCDVQRAPGQAHWLRTGWVPRRGAVHVYATLRFTMLECLSLPRAGRSCKETFTVFYYESDADTATALTPAWMENPYIKVDTVAAEHLTRKRPGAEATGKVNVKTLRLGPLSKAGFYLAFQDQGACMALLSLHLFYKKCAQLTVNLTRFPETVPRELVVPVAGSCVVDAVPAPGPSPSLYCREDGQWAEQPVTGCSCAPGFEAAEGNTKCRACAQGTFKPLSGEGSCQPCPANSHSNTIGSAVCQCRVGYFRARTDPRGAPCTTPPSAPRSVVSRLNGSSLHLEWSAPLESGGREDLTYALRCRECRPGGSCAPCGGDLTFDPGPRDLVEPWVVVRGLRPDFTYTFEVTALNGVSSLATGPVPFEPVNVTTDREVPPAVSDIRVTRSSPSSLSLAWAVPRAPSGAVLDYEVKYHEKGAEGPSSVRFLKTSENRAELRGLKRGASYLVQVRARSEAGYGPFGQEHHSQTQLDESEGWREQLALIAGTAVVGVVLVLVVIVVAVLCLRKQSNGREAEYSDKHGQYLIGHGTKVYIDPFTYEDPNEAVREFAKEIDVSYVKIEEVIGAGEFGEVCRGRLKAPGKKESCVAIKTLKGGYTERQRREFLSEASIMGQFEHPNIIRLEGVVTNSMPVMILTEFMENGALDSFLRLNDGQFTVIQLVGMLRGIASGMRYLAEMSYVHRDLAARNILVNSNLVCKVSDFGLSRFLEENSSDPTYTSSLGGKIPIRWTAPEAIAFRKFTSASDAWSYGIVMWEVMSFGERPYWDMSNQDVINAIEQDYRLPPPPDCPTSLHQLMLDCWQKDRNARPRFPQVVSALDKMIRNPASLKIVARENGGASHPLLDQRQPHYSAFGSVGEWLRAIKMGRYEESFAAAGFGSFELVSQISAEDLLRIGVTLAGHQKKILASVQHMKSQAKPGTPGGTGGPAPQY [EPHB4] | 49.4 °C | 48.9 °C | -0.108 | 0.0967 | 1.38 | -0.755
